From patent US20210107983A1 (Boehringer Ingelheim, published 2021)
Numbering of substitutions follows the chain as printed.

Assays:
[1] = target: T1, chicken egg white lysozyme (chicken, UniProt P00698 19-147); assay: SPR, 1 µM binder over immobilized lysozyme
T1 construct: unrelated positively charged protein, amine-coupled to the chip; also called Lysozyme (positive)
Summary of the method: (§1)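 Non-specific binding tested with samples at 1 μM in HBS-EP at 25 °C, 5 μL/min, over lysozyme or trypsin inhibitor amine-coupled to CM5 chip (3000–5000 RU). Association 10 min, dissociation 15 min.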

Cyno B7H6-His [2] = target: T2, Cyno B7H6-His (cynomolgus monkey); assay: SPR, binder captured on Protein A/G, B7H6 analyte
T2 construct: also called CyB7H6; cyB7-H6
T2 chain: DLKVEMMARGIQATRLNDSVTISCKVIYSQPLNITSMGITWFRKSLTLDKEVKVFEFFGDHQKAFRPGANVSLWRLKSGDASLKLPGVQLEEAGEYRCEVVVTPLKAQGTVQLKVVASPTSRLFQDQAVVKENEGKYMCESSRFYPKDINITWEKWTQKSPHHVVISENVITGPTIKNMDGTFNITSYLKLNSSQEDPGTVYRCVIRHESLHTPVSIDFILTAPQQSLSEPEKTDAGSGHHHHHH
Summary of the method: (§2)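 B7H6/CD3 binder captured (~700 RU) on a Protein A/G CM5 surface in HBS-EP+. Human or cyno B7H6 injected at 0–100 nM and human B7H1 at 0 nM and 1 μM, 300 s association and 1200 s dissociation. Data double-referenced against the reference flow cell and blank.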

Human B7H1 = target: T3, Human B7H1 (human, UniProt Q9NZQ7 20-239); assay: SPR, binder captured on Protein A/G, HuB7H1 analyte
T3 construct: also called HuB7H1; huB7-H1
T3 sequence (Q9NZQ7 other isoform, or with tags, fused parts or gaps limits assumed): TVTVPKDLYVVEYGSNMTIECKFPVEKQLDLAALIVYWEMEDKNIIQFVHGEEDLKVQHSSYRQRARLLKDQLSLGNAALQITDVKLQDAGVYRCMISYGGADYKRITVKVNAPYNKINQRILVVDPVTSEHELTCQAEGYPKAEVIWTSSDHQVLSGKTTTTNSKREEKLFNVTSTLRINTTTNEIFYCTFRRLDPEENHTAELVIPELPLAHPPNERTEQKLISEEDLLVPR
Summary of the method: as §2

Cyno CD3 E+G HuFc-6xHis [3] = target: T4, Cyno CD3 E+G HuFc-6xHis (cynomolgus monkey); assay: SPR, CD3E+G-hFc immobilized, binder analyte
T4 construct: also called CyCD3E+G-hFc; cyCD3
T4 sequence (chain, as listed by the source limits assumed): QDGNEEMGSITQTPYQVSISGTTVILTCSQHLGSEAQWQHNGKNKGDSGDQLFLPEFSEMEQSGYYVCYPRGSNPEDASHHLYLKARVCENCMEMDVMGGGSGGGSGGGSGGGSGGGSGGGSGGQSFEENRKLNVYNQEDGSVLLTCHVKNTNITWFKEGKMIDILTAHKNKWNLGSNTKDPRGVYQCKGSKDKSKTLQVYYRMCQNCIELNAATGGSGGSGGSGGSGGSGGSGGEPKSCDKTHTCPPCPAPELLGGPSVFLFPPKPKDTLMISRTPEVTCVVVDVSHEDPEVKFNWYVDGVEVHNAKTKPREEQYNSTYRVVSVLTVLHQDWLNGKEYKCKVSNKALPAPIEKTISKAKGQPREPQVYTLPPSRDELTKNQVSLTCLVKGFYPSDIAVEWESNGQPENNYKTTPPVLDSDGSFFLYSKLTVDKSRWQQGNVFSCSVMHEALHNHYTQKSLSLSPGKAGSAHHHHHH
Summary of the method: (§3)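 On a ProteOn XPR36, human and cyno CD3E+G-hFc were amine-coupled to a GLM chip at 0.4, 0.2 and 0.1 μg/mL in 10 mM acetate pH 4.5. B7H6/CD3 binding protein (0–100 nM) flowed in HBS-EP+ at 30 μL/min, with 300 s association and 600 s dissociation. Interspot and blank responses were subtracted.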

Human CD3 E+G HuFc-6xHis = target: T5, Human CD3 E+G HuFc-6xHis (human); assay: SPR, CD3E+G-hFc immobilized, binder analyte
T5 construct: also called HuCD3E+G-hFc; huCD3
T5 sequence (chain, as listed by the source limits assumed): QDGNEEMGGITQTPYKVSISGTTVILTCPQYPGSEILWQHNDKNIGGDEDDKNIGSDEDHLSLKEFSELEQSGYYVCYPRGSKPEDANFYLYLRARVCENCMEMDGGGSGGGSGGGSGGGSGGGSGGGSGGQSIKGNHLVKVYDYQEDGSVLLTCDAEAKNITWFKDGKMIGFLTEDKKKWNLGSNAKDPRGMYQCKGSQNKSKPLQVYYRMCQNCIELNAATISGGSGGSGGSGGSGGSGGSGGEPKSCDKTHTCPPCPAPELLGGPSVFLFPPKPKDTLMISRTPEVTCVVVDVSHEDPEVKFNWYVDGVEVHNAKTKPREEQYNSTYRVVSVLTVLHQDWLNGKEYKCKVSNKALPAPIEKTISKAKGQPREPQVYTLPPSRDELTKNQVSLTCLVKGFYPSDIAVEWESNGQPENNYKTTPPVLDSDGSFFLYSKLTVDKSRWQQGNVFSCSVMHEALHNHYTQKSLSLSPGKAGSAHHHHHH
Summary of the method: as §3

[4] = target: T6, trypsin inhibitor from Glycine max soybean (Glycine max (soybean)); assay: SPR, 1 µM binder over immobilized trypsin inhibitor
T6 construct: unrelated negatively charged protein, amine-coupled to the chip
T6 sequence (P01070 25-205): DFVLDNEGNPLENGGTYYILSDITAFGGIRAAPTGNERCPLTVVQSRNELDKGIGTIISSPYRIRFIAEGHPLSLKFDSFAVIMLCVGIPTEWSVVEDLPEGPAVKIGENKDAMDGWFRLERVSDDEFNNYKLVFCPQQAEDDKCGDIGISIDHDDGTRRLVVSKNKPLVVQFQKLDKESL
Summary of the method: as §1

CD3 on human T-cells = target: T7, CD3 on human T-cells (human, UniProt P07766;P09693); assay: flow cytometry on purified human T-cells, PE anti-human secondary antibody
T7 construct: endogenous, on the surface of purified T-cells; also called human T-cells expressing CD3
T7 sequence (P07766 23-207, chain 1 of 2): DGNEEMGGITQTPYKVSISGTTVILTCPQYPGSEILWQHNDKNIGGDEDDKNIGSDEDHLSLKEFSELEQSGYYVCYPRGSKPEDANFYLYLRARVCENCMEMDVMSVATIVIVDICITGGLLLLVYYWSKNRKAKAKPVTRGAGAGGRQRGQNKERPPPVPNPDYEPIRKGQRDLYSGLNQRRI
T7 sequence (P09693 23-182, chain 2 of 2): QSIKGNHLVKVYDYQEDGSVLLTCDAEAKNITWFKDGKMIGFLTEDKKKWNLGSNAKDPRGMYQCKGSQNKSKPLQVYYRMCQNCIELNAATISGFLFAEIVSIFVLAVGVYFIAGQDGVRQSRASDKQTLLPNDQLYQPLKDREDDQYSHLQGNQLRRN
Method: T-cells were isolated by negative selection using the Pan T Cell Isolation Kit II (Miltenyi Biotec #130-091-156). In brief, cells were resuspended in 40 μl buffer PBS/0.5% BSA (Gibco ref #041-94553 M)/2 mM EDTA (Invitrogen ref #15575-038) per 10 Mio cells and incubated with 10 μl of Biotin-Antibody cocktail per 10 Mio cells for 5 min at 4° C. Subsequently, 30 μl buffer and 20 μl anti-biotin MACS® MicroBeds/10 million cells were added and incubated for 10 min at 4° C. Subsequently the mixture was placed in a pre-rinsed 25LS column (Miltenyi Biotec #130-042-401) in the magnetic field of suitable MACS® microbeads separator (Miltenyi Biotec). Flow-through was collected and washed in assay medium.
T-cells were stained with increasing concentrations of two-step purified B7H6/CD3 binding proteins in FACS buffer (PBS/0.5% BSA/0.05% sodium azide). Bound molecules were detected with PE-conjugated anti-human secondary antibody (Sigma-Aldrich, #P8047).

Cyno CD3 E+G HuFc-6xHis [5] = target: T4, Cyno CD3 E+G HuFc-6xHis; assay: ratio of SPR KDs cyno/human
Cyno B7H6-His [6] = target: T2, Cyno B7H6-His; assay: ratio of SPR KDs cyno/human

T1 sequence (P00698 19-147): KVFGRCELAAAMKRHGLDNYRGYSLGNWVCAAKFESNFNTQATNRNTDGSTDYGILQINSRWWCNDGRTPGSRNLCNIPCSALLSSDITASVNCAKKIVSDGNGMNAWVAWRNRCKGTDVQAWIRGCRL

B1: B7H6#23/CD3#4 (bispecific antibody, human IgG1, kappa, L234A L235A)
chain 1: DIQMTQSPSSLSASVGDRVTITCKASQNVGKYVAWYQQKPGKAPKSLIYSASNRYDAVPSRFSGSGSGTDFTLTISSLQPEDFATYFCQQYISYPLTFGAGTKLEIKRTVAAPSVFIFPPSDEQLKSGTASVVCLLNNFYPREAKVQWKVDNALQSGNSQESVTEQDSKDSTYSLSSTLTLSKADYEKHKVYACEVTHQGLSSPVTKSFNRGECGGGGSEGKSSGSGSESKSTEGKSSGSGSESKSTGGGGSQVQLVQSGAEVKKPGASVKVSCKASGYTFTSYWMNWMKQAPGQGLEWIGGIYLSGESTDYNEKFKGKVTMTVDTSTSTVYMELSSLRSEDTAVYYCTRRGDYFGDFWGQGTLVTVSSASTKGPSVFPLAPSSKSTSGGTAALGCLVKDYFPEPVTVSWNSGALTSGVHTFPAVLQSSGLYSLSSVVTVPSSSLGTQTYICNVNHKPSNTKVDKRVEPKSCDKTHTCPPCPAPEAAGGPSVFLFPPKPKDTLMISRTPEVTCVVVDVSHEDPEVKFNWYVDGVEVHNAKTKPREEQYNSTYRVVSVLTVLHQDWLNGKEYKCKVSNKALPAPIEKTISKAKGQPREPQVYTLPPSREEMTKNQVSLWCLVKGFYPSDIAVEWESNGQPENNYKTTPPVLDSDGSFFLYSKLTVDKSRWQQGNVFSCSVMHEALHNHYTQKSLSLSPG
chain 2: not shown
notes: scFab-Fc heterodimer
Non-specific binding (RU) [1]: 6.8 RU
Kd (Cyno B7H6-His [2]): 1.7 nM
binding result (Human B7H1): no binding (tested: 1 µM)
Kd (Cyno CD3 E+G HuFc-6xHis [3]): 3.6 nM
Kd (Human CD3 E+G HuFc-6xHis): 3.8 nM
Non-specific binding (RU) [4]: 20.7 RU
binding result (CD3 on human T-cells): binds
cy/hu CD3 (Cyno CD3 E+G HuFc-6xHis [5]): 0.9
cy/hu B7-H6 (Cyno B7H6-His [6]): 1

B2: B7H6#23/CD3#6 (bispecific antibody, human IgG1, kappa, L234A L235A)
chain 1: B1 chain 1
chain 2: not shown
notes: scFab-Fc heterodimer
Non-specific binding (RU) [1]: 57.2 RU
Kd (Cyno B7H6-His [2]): 2 nM
binding result (Human B7H1): no binding (tested: 1 µM)
Kd (Cyno CD3 E+G HuFc-6xHis [3]): 3.9 nM
Kd (Human CD3 E+G HuFc-6xHis): 3.4 nM
Non-specific binding (RU) [4]: 96.5 RU
binding result (CD3 on human T-cells): binds
cy/hu CD3 (Cyno CD3 E+G HuFc-6xHis [5]): 1.2
cy/hu B7-H6 (Cyno B7H6-His [6]): 1.1

B3: B7H6#14/CD3#4 (bispecific antibody, human IgG1, kappa, L234A L235A)
chain 1: B1 chain 1 with A57G, S283N, S306N, E308D
chain 2: not shown
notes: scFab-Fc heterodimer
Non-specific binding (RU) [1]: 8.8 RU
Kd (Cyno B7H6-His [2]): 1.1 nM
binding result (Human B7H1): no binding (tested: 1 µM)
Kd (Cyno CD3 E+G HuFc-6xHis [3]): 8.5 nM
Kd (Human CD3 E+G HuFc-6xHis): 7.6 nM
Non-specific binding (RU) [4]: 22.6 RU
binding result (CD3 on human T-cells): binds
cy/hu CD3 (Cyno CD3 E+G HuFc-6xHis [5]): 1.1
cy/hu B7-H6 (Cyno B7H6-His [6]): 0.8

B4: B7H6#23/CD3#3 (bispecific antibody, human IgG1, kappa, L234A L235A)
chain 1: B1 chain 1
chain 2: not shown
notes: scFab-Fc heterodimer
Non-specific binding (RU) [1]: 18.9 RU
Kd (Cyno B7H6-His [2]): 1.9 nM
binding result (Human B7H1): no binding (tested: 1 µM)
Kd (Cyno CD3 E+G HuFc-6xHis [3]): 11.9 nM
Kd (Human CD3 E+G HuFc-6xHis): 13.8 nM
Non-specific binding (RU) [4]: 38.7 RU
binding result (CD3 on human T-cells): binds
cy/hu CD3 (Cyno CD3 E+G HuFc-6xHis [5]): 0.9
cy/hu B7-H6 (Cyno B7H6-His [6]): 0.9
